{
  "source": "patent US20170233442",
  "biological_target": "T1, P3L (nucleolin RRM2-derived peptide) (UniProt P19338)",
  "T1 sequence": "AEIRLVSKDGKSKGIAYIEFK",
  "assay": "ITC",
  "settings": "20 mM MOPS pH 7.0, 300 mM NaCl, 25 C",
  "data": [
    {"substance": "SCA2CAG22 RNA (unexpanded)", "values": [
      {"measurement": "Kd", "setting": "unexpanded repeat", "result": 17.3, "unit": "µM"}
    ]},
    {"substance": "SCA2CAG42 RNA", "values": [
      {"measurement": "Kd", "setting": "unit inferred, uM from context", "result": 5.6, "unit": "µM"}
    ]},
    {"substance": "SCA2CAG55 RNA", "values": [
      {"measurement": "Kd", "setting": "unit inferred, uM from context", "result": 4.83, "unit": "µM"}
    ]},
    {"substance": "SCA2CAG72 RNA", "values": [
      {"measurement": "Kd", "setting": "one-site model, CD also showed structural change on RNA addition (FIG. 2)", "result": 0.66, "unit": "µM"}
    ]}
  ]
}
